Data on one substance can be found in PMC3852489.

This test concerns the target S377-588-Fc (residues 377-588 of MERS-CoV spike protein fused with human IgG Fc) (MERS-CoV) (UniProt K9N5Q8). Description: SDS-PAGE of non-boiled against boiled sample.

The term stoichiometry N denotes a count of units in the complex or per binding partner. In the case of “S377-588-Fc (residues 377-588 of MERS-CoV spike protein fused with human IgG Fc) (from UniProt K9N5Q8 377-588) (Fc fusion)”, the stoichiometry N amounted to 2.
